Data as given in PMC6800368, “Rotational symmetry of the structured Chip/LDB-SSDP core module of the Wnt enhanceosome” (Proceedings of the National Academy of Sciences of the …, 2019).
Changes are numbered by the printed parent chain. Numbers in names are those of the source. Where “and” joins values, the source holds several entries; their conditions need not be identical. Equal values may be shown once.

Columns and labels:
[1] = molecular target: Lip-SSDP_(1–92) Mα3 (F66E L69A Y70A) (Drosophila) (UniProt Q9VEB9); assay: SEC-MALS; MBP-LCCD_(Chip) (WT or Mα6) coexpressed with Lip-SSDP_(1–92) (WT, V65K, Mα3 or ML), purified; Superdex-200 10/300, 2 mg/mL, PBS, 1 mM DTT; PAGE of SEC fractions
[2] = molecular target: the molecule itself; assay: crystal structure; SSDP_(1–86), tags removed; vapor diffusion at 19 °C; 2.4 Å
[3] = molecular target: the molecule itself; assay: crystal structure; DD (XLdb1 20-200) bound to a DARPin; 2.0 to 2.59 Å depending on the DARPin
[4] = molecular target: T1, MBP-LCCD_(Chip) (Drosophila, UniProt Q7KVG9-2 384-436); assay: SEC-MALS; MBP-LCCD_(Chip) (WT or Mα6) coexpressed with Lip-SSDP_(1–92) (WT, V65K, Mα3 or ML), purified; Superdex-200 10/300, 2 mg/mL, PBS, 1 mM DTT; PAGE of SEC fractions; conditions: both partners purified
T1 construct: Drosophila Chip, LCCD, residues 384-436; also called Chip-LCCD (residues 384 to 436); source: E. coli BL21(DE3)-RIL, bicistronic coexpression with Lip-SSDP_(1–92), purified (Ni-NTA, gel filtration)
T1 sequence (looked up): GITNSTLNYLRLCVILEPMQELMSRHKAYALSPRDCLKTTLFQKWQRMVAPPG

[5] = molecular target: the molecule itself; assay: SEC-MALS; Lip-SSDP_(1–92) WT and mutants alone; Superdex-200 10/300, loaded at 2 mg/mL, PBS, 1 mM DTT; self-association of SSDP dimers into tetramers
[6] = molecular target: the molecule itself; assay: SEC-MALS; MBP-LCCD_(Chip) (WT or Mα6) coexpressed with Lip-SSDP_(1–92) (WT, V65K, Mα3 or ML), purified; Superdex-200 10/300, 2 mg/mL, PBS, 1 mM DTT; PAGE of SEC fractions

Lip-SSDP_(1–92) Mα3 (F66E L69A Y70A) (from UniProt Q9VEB9 1-92) (domain or fragment)
stoichiometry N [1]: 2

B1: SSDP_(1–86) (domain or fragment, Drosophila, UniProt Q9VEB9 1-86, looked up)
chain: MYGKSKTSAVPSDAQAREKLALYVYEYLLHVGAQKAAQTFLSEIRWEKNITLGEPPGFLHTWWCVFWDLYCAAPERRDQCDHSSEA
notes: also called SSDP-N; N-terminal dimerization domain of SSDP; source: E. coli BL21(DE3)-RIL, purified (Ni-NTA, gel filtration)
binding result [2]: binds

B2: DD (XLdb1 20-200) (domain or fragment, Xenopus laevis, UniProt P70060 20-200, looked up)
chain: GIGRHTPYGNQTDYRIFELNKRLQNWTEECDNLWWDAFTTEFFEDDAMLTITFCLEDGPKRYTIGRTLIPRYFRSIFEGGATELYYVLKHPKESFHNNFVSLDCDQCTMVTQHGKPMFTQVCVEGRLYLEFMFDDMMRIKTWHFSIRQHRELIPRSILAMHAQDPQMLDQLSKNITRCGLS
notes: Xenopus laevis Ldb1 (XLdb1), dimerization domain, residues 20-200; also called dimerization domain of XLdb1; source: E. coli BL21(DE3)-RIL, purified (Ni-NTA, gel filtration)
binding result [3]: binds

B3: Lip-SSDP_(1–92) (domain or fragment, Drosophila, UniProt Q9VEB9 1-92, looked up)
chain: MYGKSKTSAVPSDAQAREKLALYVYEYLLHVGAQKAAQTFLSEIRWEKNITLGEPPGFLHTWWCVFWDLYCAAPERRDQCDHSSEAKAFHDY
notes: Drosophila SSDP, residues 1-92; Obligate dimer; dimers and tetramers are seen by SEC-MALS; also called SSDP-N; WT Lip-SSDP_(1–92); source: E. coli BL21(DE3)-RIL, purified (Ni-NTA, gel filtration); alone or coexpressed with MBP-LCCD from a bicistronic vector
stoichiometry N [4]: ~2 SSDP chains per LCCD (4:2, from the printed formula) and ~2 SSDP chains per LCCD | stoichiometry N [5]: 2 and 4

B4: Lip-SSDP_(1–92) ML (I50E L52E) (domain or fragment, Drosophila, UniProt Q9VEB9 1-92, looked up)
chain: B3 chain with I50E, L52E
notes: Drosophila SSDP, residues 1-92; also called SSDP ML; source: E. coli BL21(DE3)-RIL, purified (Ni-NTA, gel filtration); alone or coexpressed with MBP-LCCD
stoichiometry N [4]: 2 SSDP chains per LCCD | binding result [5]: binds

B5: Lip-SSDP_(1–92) V65K (domain or fragment, Drosophila, UniProt Q9VEB9 1-92, looked up)
chain: B3 chain with V65K
notes: Drosophila SSDP, residues 1-92; also called SSDP V65K; source: E. coli BL21(DE3)-RIL, purified (Ni-NTA, gel filtration); alone or coexpressed with MBP-LCCD
stoichiometry N [6]: 4
